The values below come from patent publication US20200291391A1, “CROSS-LINKED EPITOPES AND METHODS OF USE THEREOF” (Indi Molecular, Inc., priority 2019, published 2020).

For this assay, the target named is human CD8α/β (human), P01732. The experiment in a line: ELISA on CD8αβ.
human CD8α/β (human), P01732, sequence (P01732 22-182, chain 1 of 2): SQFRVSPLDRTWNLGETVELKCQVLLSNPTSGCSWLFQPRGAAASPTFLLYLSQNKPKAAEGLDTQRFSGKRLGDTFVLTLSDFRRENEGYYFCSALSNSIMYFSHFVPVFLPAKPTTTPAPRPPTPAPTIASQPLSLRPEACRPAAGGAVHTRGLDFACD
human CD8α/β (human), P01732, sequence (P10966 22-170, chain 2 of 2, further chain): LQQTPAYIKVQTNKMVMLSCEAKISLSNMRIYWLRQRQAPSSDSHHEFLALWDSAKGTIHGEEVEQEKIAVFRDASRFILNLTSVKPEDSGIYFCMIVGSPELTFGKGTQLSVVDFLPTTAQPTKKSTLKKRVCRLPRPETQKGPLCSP

For orientation: EC50 means the concentration at which the effect is half-maximal. For the molecule KHYTN (modifications not checked) [khytn (SEQ ID NO:82)], the EC50 is 6 µM.
